Measured values taken from doi:10.1101/2024.07.05.602318 (bioRxiv, 2024).
Residue numbers refer to the chain shown, from its start. In names and notes the source's numbering stands. One block for each binder: values may come before it.

Target: CLPX-3xFLAG (human, UniProt O76031 65-633)
Experiment: co-IP

CLPX-3xFLAG, sequence (O76031 65-633): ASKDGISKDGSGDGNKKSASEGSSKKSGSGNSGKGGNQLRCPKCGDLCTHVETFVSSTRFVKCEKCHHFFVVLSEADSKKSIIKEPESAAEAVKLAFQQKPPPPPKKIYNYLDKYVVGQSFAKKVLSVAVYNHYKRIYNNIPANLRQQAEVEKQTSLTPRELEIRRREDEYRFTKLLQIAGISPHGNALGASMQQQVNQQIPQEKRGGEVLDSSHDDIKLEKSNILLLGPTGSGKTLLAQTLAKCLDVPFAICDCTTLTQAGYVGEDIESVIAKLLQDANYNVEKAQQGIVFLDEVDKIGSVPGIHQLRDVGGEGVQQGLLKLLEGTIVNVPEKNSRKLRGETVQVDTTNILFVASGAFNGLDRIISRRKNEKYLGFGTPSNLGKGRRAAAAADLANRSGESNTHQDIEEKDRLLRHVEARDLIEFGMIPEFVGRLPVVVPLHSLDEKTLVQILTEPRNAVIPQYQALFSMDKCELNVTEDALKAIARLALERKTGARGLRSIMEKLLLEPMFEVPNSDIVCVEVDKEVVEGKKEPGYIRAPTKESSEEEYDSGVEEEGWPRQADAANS

binding result: binds
B1: POLDIP2 H225A, residues 52-368 (natural protein, human, UniProt Q9Y2S7 52-368, looked up)
chain: SSRNRPEGKVLETVGVFEVPKQNGKYETGQLFLHSIFGYRGVVLFPWQARLYDRDVASAAPEKAENPAGHGSKEVKGKTHTYYQVLIDARDCPHISQRSQTEAVTFLANHDDSRALYAIPGLDYVSHEDILPYTSTDQVPIQHELFERFLLYDQTKAPPFVARETLRAWQEKNAPWLELSDVHRETTENIRVTVIPFYMGMREAQNSHVYWWRYCIRLENLDSDVVQLRERHWRIFSLSGTLETVRGRGVVGREPVLSKEQPAFQYSSHVSLQASSGHMWGTFRFERPDGSHFDVRIPPFSLESNKDEKTPPSGLHW

binding result: binds
B2: POLDIP2 (DNA polymerase delta interacting protein 2), residues 52-368 (natural protein, human, UniProt Q9Y2S7 52-368, looked up)
chain: B1 chain with A174H
